# Experimental data reported in patent US7709606B2, “Interacting polypeptide comprising a heptapeptide pattern and a cellular penetration domain” (Ecole Normale Superieure de Lyon, priority 2003, dated 2010).
# Changes are numbered by the printed parent chain. Where two headings read alike, the source gives them in different places.
# B1: SHPT-8: SUMO-1-heptapeptide-Tat PTD protein selected against Tat; heptapeptide Phe Thr Met Arg Gly Val Asp (SEQ ID NO: 38) (protein)
# chain: MSDQEAKPSTEDLGDKKEGEYIKLKVIGQDSSEIHFKVKMTTHLKKLKESYCQRQGVPMNSLRFLFEGQRIADNHTPKELGMEEEDVIEVYQEQTARPPNPKKEIELGGGGSFTMRGVDPGRKKRRQRRRG
# B2: SHPR-142: SUMO-1-heptapeptide-Tat PTD protein against Rev; heptapeptide Phe Trp Phe Cys Gly Leu Lys (SEQ ID NO: 2) (protein)
# chain: B1 chain with T114W, M115F, R116C, V118L, D119K
# modifications: left off: small tags and cut ends
# Columns and labels:
# Tat = molecular target: T1, Tat (Human immunodeficiency virus type 1 group M subtype B, UniProt P04608); assay: Tat functional test, LTR HIV-CAT reporter in HeLa cells; format: cell-based, HIV-1; conditions: higher concentrations
# T1 construct: expressed in transfected cells; host or cells: HeLa
# Protocol: The effect of the 4 SHPTs on the transactivation of the HIV-1 promoter by Tat was evaluated by transitory expression experiments in HeLa cells.
# GST-Rev = GST-Rev (Human immunodeficiency virus type 1 group M subtype B, UniProt P04618); conditions: eluted with glutathione, immunoblot
# Protocol: GXT-Rev was produced in bacteria and loaded onto an agarose-glutathion column. […] After rinsing, the proteins were eluted with glutathione. An aliquot of the feed, rinse and elution fractions was analyzed by immunoblot for GST-Rev (top graph) and for SHP using antibodies against GST or against FLAG respectively.
# The SHPR activity was evaluated using the reporter construct pDM128 which included the coding sequence CAT and an RRE motif in an intron. Expression of Rev stimulated expression of CAT allowing an unspliced messenger to be exported to the cytoplasm. […] It was verified whether this inhibition was in fact directly correlated with a protein-protein interaction as predicted. To this end, both Rev and the SHPRs were produced in bacteria. […] Rev was expressed in fusion with GST and coupled to glutathione-agarose beads.
# Jurkat cells = assay: intracellular entry, immunofluorescence in Jurkat cells; format: cell-based; conditions: 2 μM for one hour, analyzed 24 h later
# Protocol: Light transmission and fluorescence images are shown for representative cells.
# The immunofluorescence tests were carried out with a primary anti-FLAG antibody in a dilution of 1:500 incubated for 2 hours and a secondary antibody coupled to the Alexa Fluor 488 fluorophore (Molecular Probes) diluted 1:1000, incubated for one hour.
# To confirm that SHPs do indeed enter the cell, immunofluorescence analyses were also carried out. Jurkat cells were incubated with 1 μM of SHP for 4 hours and after washing twice, the cells were cultured for 24 hours.
# HIV-1-LA1 = assay: antiviral test in PHA-P activated PBMC, RT activity; format: cell-based; conditions: for anti-HIV activity, replication of HIV-1-LA1: PBMC activated by PHA-P, 7th day, in words; for Percentage inhibition, Mean: HIV-1 LA1, day 7
# Protocol: (§1) These viruses were amplified in vitro with umbilical blood mononuclear cells (UBMC) activated with PHA-P. The cell-free supernatant was centrifuged at […] for 10 minutes to eliminate soluble factors, and the residue was re-suspended in cell culture medium. Virus stocks were titrated using PBMC cells activated with PHA-P and 50% tissue culture infectious doses (TCID50) were calculated using Kärber's formula.
# PBMC cells were pre-treated for 30 minutes by 5 concentrations of each molecule and infected with 75 TCID50 of the HIV-1-LA1 strain. AZT (1.6, 8, 40, 200 and 1000 nM) and indinavir (1.6, 8, 40, 200 and 1000 nM) were used as the control. […] The molecules were maintained throughout culture, and the cellular supernatant was harvested 7 days post infection and stored at −20° C. to measure viral replication by reverse transcriptase activity (RT) assay.
# (§2) HIV replication was analyzed by assaying the RT activity in the supernatants from cell cultures using the RetroSys RT kit (Innovagen). The experiments were carried out 3 times and the results are expressed as the mean of the RT activity±the standard deviation (SD).
# In a last step, it was examined whether SHPs were actually capable of inhibiting HIV-1 replication. This was carried out in PBMCs activated by PHA-P and in MDMs. […] The effects of different SHPs was thus tested at this time. AZT and indinavir were used as controls.
# HIV-1/Ba-L = assay: antiviral test in monocyte-derived macrophages (MDM), RT activity; format: cell-based
# Protocol: as §1
# The MDM cells were pre-treated for 30 minutes in 6 concentrations of different molecules and infected with 30000 TCID50 of the HIV-1/Ba-L strain. AZT (0.8, 4, 20, 100 and 500 nM) and indinavir (0.8, 4, 20, 100 and 500 nM) were used as the control. […] The molecules were maintained for 7 days post infection, and the cellular supernatant was harvested 7, 14 and 21 days post infection and stored at −20° C. to measure viral replication by reverse transcriptase activity (RT) assay.
# as §2
# Rev/RRE association = Rev/RRE association (Human immunodeficiency virus type 1 group M subtype B, UniProt P04618); conditions: Rev produced in bacteria, RRE RNA probe
# Protocol: To this end, gel retard experiments were carried out with a RNA molecule corresponding to the RRE element as the probe. The Rev protein produced in bacteria binds to this RNA and induces a non denaturing polyacrylamide gel migration retardation.
# LexNES (NES of Rev) = LexNES (NES of Rev) (Human immunodeficiency virus type 1 group M subtype B, UniProt P04618); conditions: in words; method not stated
# Rev = Rev (Human immunodeficiency virus type 1 group M subtype B, UniProt P04618); conditions: HeLa cells
# Protocol: This type of indicative construct allowed an evaluation of the effect of Rev, which by causing transport towards the cytoplasm of the non spliced RNA, allowed expression of the CAT enzyme.
# The CAT activity was measured using the CAT ELISA kit (Roche).
# These various mutants were tested using a transitory expression system consisting of transfecting HeLa cells of the reporter plasmid having the CAT sequence associated with the RRE in the intronic position with expression vectors for the Rev protein and the SHPR protein. […] The separation between the two values was less than 20%.
# These vectors were transfected with the reporter plasmid pDM128 and the expression vector Rev as described in the above sections (and in Roisin et al, JBC (2004) 279: 9208). The quantity of CAT protein is expressed as a % of that corresponding to transfection of parental SHPR. A value of more than 100 thus indicates a negative effect on the inhibiting power of SHPR and a lower value indicates an increase in this inhibiting property.
# [1] = MDMs, HIV-1/Ba-L, Day 7, dose 62.5 (nM)
# [2] = MDMs, HIV-1/Ba-L, Day 7, dose 125 (nM)
# [3] = MDMs, HIV-1/Ba-L, Day 7, dose 250 (nM)
# [4] = MDMs, HIV-1/Ba-L, Day 7, dose 500 (nM)
# [5] = MDMs, HIV-1/Ba-L, Day 7, dose 1000 (nM)
# [6] = MDMs, HIV-1/Ba-L, Day 7, dose 2000 (nM)
# [7] = MDMs, HIV-1/Ba-L, Day 14, dose 62.5 (nM)
# [8] = MDMs, HIV-1/Ba-L, Day 14, dose 125 (nM)
# [9] = MDMs, HIV-1/Ba-L, Day 14, dose 250 (nM)
# [10] = MDMs, HIV-1/Ba-L, Day 14, dose 500 (nM)
# [11] = MDMs, HIV-1/Ba-L, Day 14, dose 1000 (nM)
# [12] = MDMs, HIV-1/Ba-L, Day 14, dose 2000 (nM)
# [13] = MDMs, HIV-1/Ba-L, Day 21, dose 62.5 (nM)
# [14] = MDMs, HIV-1/Ba-L, Day 21, dose 125 (nM)
# [15] = MDMs, HIV-1/Ba-L, Day 21, dose 250 (nM)
# [16] = MDMs, HIV-1/Ba-L, Day 21, dose 500 (nM)
# [17] = MDMs, HIV-1/Ba-L, Day 21, dose 1000 (nM)
# [18] = MDMs, HIV-1/Ba-L, Day 21, dose 2000 (nM)
# T1 sequence (P04608 whole entry): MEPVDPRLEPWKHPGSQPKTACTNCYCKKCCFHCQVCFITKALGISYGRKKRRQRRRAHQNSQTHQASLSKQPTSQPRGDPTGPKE
# Sequence of LexNES (NES of Rev) (P04618 70-96): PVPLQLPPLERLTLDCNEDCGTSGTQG
Molecule,immunofluorescence with antibody against FLAG (Jurkat cells),"anti-HIV activity, replication of HIV-1-LA1 (HIV-1-LA1)","Percentage inhibition, Mean (HIV-1-LA1; PBMCs, Dose 31 (nM)) [%]","Percentage inhibition, Mean (HIV-1-LA1; PBMCs, Dose 62.5 (nM)) [%]","Percentage inhibition, Mean (HIV-1-LA1; PBMCs, Dose 125 (nM)) [%]","Percentage inhibition, Mean (HIV-1-LA1; PBMCs, Dose 250 (nM)) [%]","Percentage inhibition, Mean (HIV-1-LA1; PBMCs, Dose 500 (nM)) [%]","Percentage inhibition, Mean (HIV-1-LA1; PBMCs, Dose 1000 (nM)) [%]","Percentage inhibition, Mean (HIV-1-LA1; PBMCs, Dose 2000 (nM)) [%]","inhibition of HIV replication (HIV-1/Ba-L; MDM, 2 μM on day 14) [%]","Percentage inhibition, Mean (HIV-1/Ba-L; [1]) [%]","Percentage inhibition, Mean (HIV-1/Ba-L; [2]) [%]","Percentage inhibition, Mean (HIV-1/Ba-L; [3]) [%]","Percentage inhibition, Mean (HIV-1/Ba-L; [4]) [%]","Percentage inhibition, Mean (HIV-1/Ba-L; [5]) [%]","Percentage inhibition, Mean (HIV-1/Ba-L; [6]) [%]","Percentage inhibition, Mean (HIV-1/Ba-L; [7]) [%]","Percentage inhibition, Mean (HIV-1/Ba-L; [8]) [%]","Percentage inhibition, Mean (HIV-1/Ba-L; [9]) [%]","Percentage inhibition, Mean (HIV-1/Ba-L; [10]) [%]",further results
B1,diffuse fluorescence,did not have any anti-HIV activity,0,0,0,0,0,0,0,69±6,5,39,78,78,70,84,0,2,55,50,"Tat transactivation of the HIV-1 promoter (Tat): slight reduction in transactivation; co-elution with GST-Rev (GST-Rev): no SHPT was present in fractions containing GST-Rev; co-elution with GST-Rev (GST-Rev; listed as SHPR-8): did not bind to the protein on the column; ED70 (HIV-1/Ba-L; MDMs, HIV-1/Ba-L, Day 14): 2.05 µM; ED90 (HIV-1/Ba-L; MDMs, HIV-1/Ba-L, Day 14): 5.5 µM; Percentage inhibition, Mean (HIV-1/Ba-L; [11]): 46%; Percentage inhibition, Mean (HIV-1/Ba-L; [12]): 69%; Percentage inhibition, Mean (HIV-1/Ba-L; [13]): 0%; Percentage inhibition, Mean (HIV-1/Ba-L; [14]): 5%; Percentage inhibition, Mean (HIV-1/Ba-L; [15]): 37%; Percentage inhibition, Mean (HIV-1/Ba-L; [16]): 21%; Percentage inhibition, Mean (HIV-1/Ba-L; [17]): 20%; Percentage inhibition, Mean (HIV-1/Ba-L; [18]): 59%; effect on Rev/RRE association (gel retardation) (Rev/RRE association): no particular effect"
B2,diffuse fluorescence,reduced replication,0,0,0,0,19,26,73,44±10,0,0,0,0,3,35,0,0,0,0,"reduction of HIV-1 replication (HIV-1-LA1; PBMC activated with PHA-P, 2 μM): 73±6%; ED70 (HIV-1-LA1; PBMCs, HIV-1-LA1, 7th day): 2.1 µM; ED90 (HIV-1-LA1; PBMCs, HIV-1-LA1, 7th day): 4.6 µM; inhibition of HIV replication (HIV-1/Ba-L; MDM, 1 μM): not effect; anti-HIV activity, HIV-1/Ba-L replication (HIV-1/Ba-L; MDM, in words): slight inhibition of HIV replication; Percentage inhibition, Mean (HIV-1/Ba-L; [11]): 0%; Percentage inhibition, Mean (HIV-1/Ba-L; [12]): 44%; Percentage inhibition, Mean (HIV-1/Ba-L; [13]): 0%; Percentage inhibition, Mean (HIV-1/Ba-L; [14]): 0%; Percentage inhibition, Mean (HIV-1/Ba-L; [15]): 0%; Percentage inhibition, Mean (HIV-1/Ba-L; [16]): 0%; Percentage inhibition, Mean (HIV-1/Ba-L; [17]): 0%; Percentage inhibition, Mean (HIV-1/Ba-L; [18]): 18%; interaction with the NES signal of Rev (LexNES (NES of Rev)): interacts with Rev NES; inhibition of the function of Rev (CAT from pDM128) (Rev): effective inhibitors of the function of Rev; effect on Rev/RRE association (gel retardation) (Rev/RRE association): did not inhibit this association"
